B1: MMP1 (parent)
chain: FHGTRQYKFDPKTKRILTLQKANS
B2: SPACA3 (parent)
chain: FTSGFNAAALDYEADGSTNNGIFQ

Variants of: B1
Test: protein stability index of a GFP-peptide fusion (GPS, HEK-293T) (PSI 1-6); higher = more stable
Settings: c terminus: a fixed tail appended
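Further: lentivirally expressed fusions sorted by FACS into six bins by GFP to DsRed ratio, PSI derived from sequencing read proportions per bin multiplied by bin number.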

Protein stability index, by site and new letter:
F9: R 2.39; I 1.68; M 1.67; K 2.17; Q 1.6; W 2.27; V 1.58; L 2.05
K21: R 1.82; P 2.04; A 2.02
Y7: A 2.31; W 3.02; N 2.46; S 2.74; T 1.89; I 1.94; L 2.57; M 1.72; P 2.08; Q 2.45
Q6: A 2.15; K 1.92; T 1.6; H 4.5; S 1.67; L 1.83; C 1.9; W 2.63; D 1.87; E 2.12; G 1.61; R 1.5
R5: V 2.04; C 1.79; E 2.02
H2: N 2.33; Y 2.35; G 2.55
R15: K 1.66; F 1.3; W 1.69; L 2.2; M 1.47; A 2.51; Y 1.57; G 1.31
K14: R 1.85; I 1.92; W 1.95; E 1.85; D 2.19; S 1.69
K8: N 2.71; T 2.5; L 1.64
F1: I 3.12; R 3.31; V 3.18; M 3.13; L 3.05; D 3.65; P 3.17; Y 2.51
G3: K 1.93; Q 1.67; R 1.6; S 1.54; T 2.1; H 2.23
D10: L 1.5; Q 2.46; W 1.77; G 2.15; P 1.72; F 2.45
L17: S 1.8; W 1.88; R 2.56; E 1.59; N 1.6; T 2.2
S24: H 2.58; Y 1.67; E 1.79; M 1.85; K 1.84; R 1.3; A 1.6; C 2.01; D 1.77
T4: A 1.81; K 2.17; M 1.8; H 1.68; W 3.19; F 3.12; L 1.26
A22: K 1.99; Y 2.49; P 2.19; E 2.92; W 1.6; H 2.49; T 1.68
T13: M 1.67; C 2.66
P11: F 1.07; L 1.52; D 2.01; M 1.83; N 1.93
K12: L 1.91; T 1.73; N 2.12; I 1.95; S 1.57; Y 3.08; M 1.7; E 2.4; W 3.25
T18: N 2.15; V 1.04; L 1.58; F 1.67; W 2.4; S 1.9; Y 1.51
Q20: R 2.37; D 1.88; K 1.84; F 1.91; N 1.73; L 2.12; A 2.46; E 2.03; W 2.77
I16: C 1.68; Q 1.94; Y 1.35; G 1.64
N23: F 1.25; Q 1.85
L19: C 1.63; Q 1.87; R 1.44; G 2.94

Variants of: B2
Test: as above
Settings: c terminus: a fixed tail appended

Protein stability index: each site, then its substitutions
F23: P 2.42; V 2.11; W 1.64; R 2.16; D 2.5; E 2.28; I 2; T 2.92; S 2.2; Q 2.36; H 2.42; N 2.4; G 2.54; Y 1.98; C 1.9; L 2.08; M 2.55; K 2.48; A 2.1
S17: M 1.48; A 2.1; K 1.87; I 1.96; R 1.95; E 2.13; L 1.71; Y 1.93; T 2.19; Q 2.35; C 1.94; D 2.21; H 2.31; W 2.1; V 2.06; N 2.21; P 2.05; G 2.05; F 1.74
D15: P 1.64; K 1.65; L 1.58; M 1.63; E 2.26; Q 1.66; T 1.98; I 2.12; S 2; W 2.46; V 1.43; Y 2.47; R 1.96; H 1.74; N 1.86; G 1.68; F 2.42
G16: T 2.26; C 1.49; M 2; Q 1.9; P 1.97; Y 1.66; H 2.19; I 1.92; E 2.31; A 2.3; V 1.78; F 1.96; S 1.83; D 2.31; W 1.15; L 1.72; K 2.26; R 1.87; N 2.33
T18: D 2.06; P 1.83; W 1.59; Y 2.02; N 1.7; G 2.31; S 2.08; A 1.87; E 2.27; R 2.02; K 2.78; L 2.07; M 1.95; I 2.14; Q 1.82; F 1.78; H 1.83; V 1.5; C 2
N19: A 1.67; Y 1.83; Q 2.44; W 1.55; E 2.23; T 1.84; G 2.03; L 1.78; M 2.21; K 1.63; I 1.79; R 1.66; V 1.76; S 2.38; H 2.52; D 2.38; C 2.31; P 2.21; F 2.24
Q24: C 1.93; P 1.99; M 1.46; T 2.23; S 1.85; R 2.2; F 1.92; K 1.87; G 2.36; N 1.67; E 2.33; D 2.02; H 2.46; Y 1.74; L 1.71; V 1.17; A 1.47; I 2.18
I22: G 2.25; C 1.74; Y 2.06; F 1.69; Q 2.13; E 2.4; W 2.15; M 2.5; P 1.94; H 1.95; N 2.13; S 1.86; K 1.93; V 1.69; A 2.36; R 2.09; T 2.06; D 2.41; L 1.74
G21: W 1.58; F 1.8; C 1.97; I 1.51; M 1.51; L 2.06; P 2.12; Q 1.7; E 2.28; S 1.72; N 1.84; A 1.91; T 2.02; K 2.33; D 1.9; H 1.98; R 1.75; Y 1.75; V 1.98
N20: E 2.21; H 1.75; T 1.93; Y 2.19; K 1.98; M 1.87; W 1.43; D 2.51; S 2.15; F 2.03; R 1.66; A 2.31; P 2.28; L 2.04; I 1.9; G 1.96; V 2; C 2.33; Q 1.84

From the supplement of paper PMC10567573
